Data from paper PMC8280819 (The EMBO Journal, 2021).

Target: His‐SigH (Mycobacterium tuberculosis, UniProt P9WGH8 1-216)
Assay: BLI

Chain of His‐SigH (P9WGH8 whole entry): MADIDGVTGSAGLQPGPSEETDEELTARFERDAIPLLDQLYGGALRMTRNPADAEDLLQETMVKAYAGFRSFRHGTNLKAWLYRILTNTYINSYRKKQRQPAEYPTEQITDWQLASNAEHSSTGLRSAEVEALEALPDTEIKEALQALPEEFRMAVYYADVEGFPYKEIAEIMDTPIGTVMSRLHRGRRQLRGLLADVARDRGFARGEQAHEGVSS

B1: His‐AosR (Rv1332, actinomycetes oxidative stress regulator) (natural protein)
chain: MPPVCGRRCSRTGEIRGYSGSIVRRWKRVETRDGPRFRSSLAPHEAALLKNLAGAMIGLLDDRDSSSPSDELEEITGIKTGHAQRPGDPTLRRLLPDFYRPDDLDDDDPTAVDGSESFNAALRSLHEPEIIDAKRVAAQQLLDTVPDNGGRLELTESDANAWIAAVNDLRLALGVMLEIGPRGPERLPGNHPLAAHFNVYQWLTVLQEYLVLVLMGSR
response, fold over reducing conditions: 3 fold
